In patent publication US8551717B2, “Method for determining sumoylation” (Medizinische Hochschule Hannover, priority 2008, dated 2013):
One block for each substance: values may come before it.

Columns and labels:
JUN-U = target: T1, JUN-U (Homo sapiens, UniProt P05412+P63279); test: Trans-SUMOylation by JUN-U; type: cell-based; conditions: protein 2 construct coexpressed with JUN-U and EGFP-SUMO1 in HEK293, western blot
T1 construct: expressed in transfected cells; host or cells: HEK293

U-MK2 = target: T2, U-MK2 (Homo sapiens, UniProt P49137+P63279); test: Trans-SUMOylation by U-MK2; type: cell-based; conditions: protein 2 construct coexpressed with U-MK2 and EGFP-SUMO1 in HEK293
T2 construct: expressed in transfected cells; host or cells: HEK293

U-p38α = target: T3, U-p38α (Homo sapiens, UniProt P63279+Q16539); test: Trans-SUMOylation by U-p38α; type: cell-based; conditions: protein 2 construct coexpressed with U-p38α and EGFP-SUMO1 in HEK293
T3 construct: expressed in transfected cells; host or cells: HEK293

p53-U = target: T4, p53-U (Homo sapiens, UniProt P04637+P63279); test: Trans-SUMOylation by p53-U; type: cell-based; conditions: western blot
T4 construct: expressed in transfected cells; host or cells: HEK293

MK2-U = target: T5, MK2-U (Homo sapiens, UniProt P49137+P63279); test: Trans-SUMOylation by MK2-U; type: cell-based; conditions: protein 2 construct coexpressed with MK2-U and EGFP-SUMO1 in HEK293
T5 construct: expressed in transfected cells; host or cells: HEK293

U-MK5 = target: T6, U-MK5 (Homo sapiens, UniProt P63279+Q8IW41); test: Trans-SUMOylation by U-MK5; type: cell-based; design: key: (++), strong TransSUMOylation; (+), TransSUMOylation; (+/−) weak TransSUMOylation; (−) no detectable TransSUMOylation; conditions: protein 2 construct coexpressed with U-MK5 and EGFP-SUMO1 in HEK293; western blot; Table 2
T6 construct: expressed in transfected cells; host or cells: HEK293
Excerpt: (§1) To identify new SUMOylation substrates and to study the function of SUMOylation the Ubc9/substrate dimerisation-dependent SUMOylation system (USDDS) was developed which consists of fusions of the SUMOylation substrate and of the SUMO-conjugating enzyme Ubc9 to the chemically activatable heterodimerisation domains FKBP and FRB, respectively, as shown in FIG. 2. When the substrate protein fused to FKBP is coexpressed with Ubc9-FRB, treatment of HEK293 cells with the rapamycin-related dimerizer AP21967 induces SUMOylation of the substrate protein fused to FKBP at its specific SUMOylation site. […] Dependent on an EcoRl site in the coding sequence, seven C-terminal amino acids of the human STAT1a in the STAT1-FKBP/FRB fusion proteins are missing. For the SUMOylation analysis HEK293 (human embryonic kidney cells) cells have been used. HEK293 cells were cultured in Dulbecco's modified Eagle's medium with high glucose, complemented with 10% fetal calf serum, 2 mM L-glutamine, 100 U/ml penicillin and […] streptomycin. We performed transfection of HEK293 cells using the polyethylenimine transfection reagent. HEK293 cells of a fresh confluent 10 cm plate were transferred on a 12-well plate. After 12-24 h incubation about 70% cell confluence is reached. For each well 45 μl of serum/antibiotic free DMEM medium is mixed with 750 ng of the transfection-purity expression vector DNA (all together 47 μl) and vortexed. Then, 3 μl of vortexed polyethylenimin stock solution (1 mg/ml) is added and the mixture is vortexed. After incubation at room temperature for 10 min 450 μl fresh DMEM with antibiotics is added to the mixture and vortexed. The medium on the cells was then completely removed and immediately, the 500 μl transfection mix was added carefully to each well. The 12 well plate was rocked to ensure a proper distribution of the DNA/transfection reagent complex. After an incubation of the cells for 24 h at a 37° C. in a humidified CO2-incubator (5%) the cells were lysed in 150 μl Laemmli (2×) gel loading buffer (160 mM Tris-HCL, pH 6.8, 4% (w/v) sodium dodecyl sulphate (SDS), 20% (v/v) glycerol, 0.5% β-mercaptoethanol (v/v), 0.008% (w/v) bromophenol blue) and incubated for 10 min at 95° C. For western blot analysis the proteins were separated by SDS-PAGE, blotted on a PVDF membrane and developed with specific primary antibodies (α-Ubc9 (H81, Santa Cruz), α-pY701-STAT1 (Tyr701, Cell Signaling), α-STAT1 (Cell Signaling), α-p53 (1C12, Cell Signaling), α-SUMO1 (Cell Signaling), a horseradish peroxidase (HRP)-conjugated secondary antibody (different companies), the ECL+ (Amersham) or Immobilon™ Western (Millipore) and the LAS-3000 imaging system (Fuji).
As shown above, the SUMOylation of a protein of interest can be induced by the heterodimerisation with a binding protein fused to Ubc9. To find out if Trans-SUMOylation is useful for the characterisation of common protein interactions, protein binding pairs well known from the literature or found in two hybrid screens. […] Therefore the protein pairs were coexpressed with EGFP-SUMO1 in HEK293 cells and after 24h the transfectants were lysed and the protein extracts were analyzed in western blots.
Protein-protein interactions described in the cited references were tested for Trans-SUMOylation. Each specific protein-protein interaction was tested by coexpression of different combinations of protein 1 fused to Ubc9 (U) with protein 2 mostly fused two a tag (HA, FLAG, Myc, GST, ST). (++), strong TransSUMOylation; (+), TransSUMOylation; (+/−) weak TransSUMOylation; (−) no detectable TransSUMOylation; (MEKK1ca) the activated MAP3 kinase MEKK1, that can enhance protein SUMOylation, was coexpressed.
Protein-protein interaction of each pair of protein 1/protein 2 was tested by coexpression of different combinations of a protein 1 fused to Ubc9 (U) with protein 2 mostly fused two a Tag (HA, FLAG, GST, ST). […]

U-CSNK2B = target: T7, U-CSNK2B (Homo sapiens, UniProt P63279+P67870); test: Trans-SUMOylation by U-CSNK2B; type: cell-based; design: key: (++), strong TransSUMOylation; (+), TransSUMOylation; (+/−) weak TransSUMOylation; (−) no detectable TransSUMOylation; conditions: protein 2 construct coexpressed with U-CSNK2B and EGFP-SUMO1 in HEK293; western blot; Table 2
T7 construct: expressed in transfected cells; host or cells: HEK293
Excerpt: as §1, with “The 12 well plate was rocked to ensure a proper distribution of the DNA/transfection reagent complex. After an incubation of the cells for 24 h at a 37° C. in a humidified CO2-incubator (5%) the cells were lysed in 150 μl Laemmli (2×) gel loading buffer (160 mM Tris-HCL, pH 6.8, 4% (w/v) sodium dodecyl sulphate (SDS), 20% (v/v) glycerol, 0.5% β-mercaptoethanol (v/v), 0.008% (w/v) bromophenol blue) and incubated for 10 min at 95° C. For western blot analysis the proteins were separated by SDS-PAGE, blotted on a PVDF membrane and developed with specific primary antibodies (α-Ubc9 (H81, Santa Cruz), α-pY701-STAT1 (Tyr701, Cell Signaling), α-STAT1 (Cell Signaling), α-p53 (1C12, Cell Signaling), α-SUMO1 (Cell Signaling), a horseradish peroxidase (HRP)-conjugated secondary antibody (different companies), the ECL+ (Amersham) or Immobilon™ Western (Millipore) and the LAS-3000 imaging system (Fuji).” left out
As shown above, the SUMOylation of a protein of interest can be induced by the heterodimerisation with a binding protein fused to Ubc9. […] Therefore the protein pairs were coexpressed with EGFP-SUMO1 in HEK293 cells and after 24h the transfectants were lysed and the protein extracts were analyzed in western blots. […]

STAT1 = test: Interplay of STAT1 Y701 phosphorylation and K703 SUMOylation by USDDS, western blot; type: cell-based, human; conditions: HEK293, USDDS with AP21967 1 μM and interferon-β, any stimulation scenario
STAT1-U = target: T8, STAT1-U (Homo sapiens, UniProt P42224+P63279); test: Trans-SUMOylation by STAT1-U; type: cell-based; conditions: protein 2 construct coexpressed with STAT1-U and EGFP-SUMO1 in HEK293; western blot; Table 1
T8 construct: expressed in transfected cells; host or cells: HEK293

CSNK2B-U = target: T9, CSNK2B-U (Homo sapiens, UniProt P63279+P67870); test: Trans-SUMOylation by CSNK2B-U; type: cell-based; conditions: protein 2 construct coexpressed with CSNK2B-U and EGFP-SUMO1 in HEK293; western blot; Table 1
T9 construct: expressed in transfected cells; host or cells: HEK293

[1] = protein 2 construct coexpressed with P53-U (p53-U) and EGFP-SUMO1 in HEK293, Table 1

T1 sequence (P05412+P63279 fused): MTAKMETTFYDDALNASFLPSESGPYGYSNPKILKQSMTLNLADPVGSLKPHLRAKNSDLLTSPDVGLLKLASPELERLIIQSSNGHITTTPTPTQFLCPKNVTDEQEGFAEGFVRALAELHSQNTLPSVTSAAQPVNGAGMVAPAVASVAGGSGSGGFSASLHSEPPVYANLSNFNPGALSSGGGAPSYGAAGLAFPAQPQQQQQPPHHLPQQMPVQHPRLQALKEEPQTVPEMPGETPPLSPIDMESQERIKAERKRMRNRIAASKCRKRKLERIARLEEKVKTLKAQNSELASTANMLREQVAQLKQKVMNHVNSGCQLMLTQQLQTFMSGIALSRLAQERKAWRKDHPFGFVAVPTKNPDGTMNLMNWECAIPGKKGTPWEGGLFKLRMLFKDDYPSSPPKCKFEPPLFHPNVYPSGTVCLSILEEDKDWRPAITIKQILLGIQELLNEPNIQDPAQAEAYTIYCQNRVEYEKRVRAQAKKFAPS
T2 sequence (P63279+P49137 fused): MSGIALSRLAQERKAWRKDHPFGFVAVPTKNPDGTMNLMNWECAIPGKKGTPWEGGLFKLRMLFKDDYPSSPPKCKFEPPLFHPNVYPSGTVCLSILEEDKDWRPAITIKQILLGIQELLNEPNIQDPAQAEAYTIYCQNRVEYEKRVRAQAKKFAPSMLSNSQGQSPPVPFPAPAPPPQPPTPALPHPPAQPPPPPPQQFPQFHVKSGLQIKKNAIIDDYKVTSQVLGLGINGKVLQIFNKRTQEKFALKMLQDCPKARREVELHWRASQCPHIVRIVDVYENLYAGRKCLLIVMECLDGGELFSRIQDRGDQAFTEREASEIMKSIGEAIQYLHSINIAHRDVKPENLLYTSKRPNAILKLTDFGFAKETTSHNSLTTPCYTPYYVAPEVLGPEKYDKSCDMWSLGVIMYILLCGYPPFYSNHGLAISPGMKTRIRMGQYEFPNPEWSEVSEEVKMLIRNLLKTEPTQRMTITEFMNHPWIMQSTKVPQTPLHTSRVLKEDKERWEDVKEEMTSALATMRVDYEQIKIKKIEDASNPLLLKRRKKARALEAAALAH
T5 sequence (P49137+P63279 fused): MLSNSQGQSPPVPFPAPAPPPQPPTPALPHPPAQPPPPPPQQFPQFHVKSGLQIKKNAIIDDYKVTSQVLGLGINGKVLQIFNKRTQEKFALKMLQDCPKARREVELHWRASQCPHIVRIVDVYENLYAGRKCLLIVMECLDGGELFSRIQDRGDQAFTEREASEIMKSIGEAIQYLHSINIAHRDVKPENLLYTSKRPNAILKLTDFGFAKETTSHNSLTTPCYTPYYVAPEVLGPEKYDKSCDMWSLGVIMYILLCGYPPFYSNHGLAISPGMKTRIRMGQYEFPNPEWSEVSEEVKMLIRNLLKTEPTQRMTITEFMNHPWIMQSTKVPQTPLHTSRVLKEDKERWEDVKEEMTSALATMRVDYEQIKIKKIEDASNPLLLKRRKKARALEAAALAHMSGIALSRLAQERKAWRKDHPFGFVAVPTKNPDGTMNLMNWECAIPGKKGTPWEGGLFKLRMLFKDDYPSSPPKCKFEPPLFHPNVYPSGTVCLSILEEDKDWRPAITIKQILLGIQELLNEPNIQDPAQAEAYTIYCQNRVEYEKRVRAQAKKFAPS
T3 sequence (P63279+Q16539 fused): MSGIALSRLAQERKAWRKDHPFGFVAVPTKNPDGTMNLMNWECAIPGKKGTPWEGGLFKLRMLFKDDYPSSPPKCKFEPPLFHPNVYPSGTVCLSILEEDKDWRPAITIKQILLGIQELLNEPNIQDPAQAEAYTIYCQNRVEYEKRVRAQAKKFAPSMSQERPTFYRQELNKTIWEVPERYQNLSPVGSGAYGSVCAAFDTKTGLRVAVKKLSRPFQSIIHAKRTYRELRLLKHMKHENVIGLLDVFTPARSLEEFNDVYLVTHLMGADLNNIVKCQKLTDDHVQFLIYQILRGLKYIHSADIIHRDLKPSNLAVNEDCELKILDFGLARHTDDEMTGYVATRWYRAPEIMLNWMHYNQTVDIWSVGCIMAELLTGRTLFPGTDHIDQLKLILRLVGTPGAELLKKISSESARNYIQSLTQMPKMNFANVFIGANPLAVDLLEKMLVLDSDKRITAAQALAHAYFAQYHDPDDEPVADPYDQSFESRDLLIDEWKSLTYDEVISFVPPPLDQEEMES
T9 sequence (P67870+P63279 fused): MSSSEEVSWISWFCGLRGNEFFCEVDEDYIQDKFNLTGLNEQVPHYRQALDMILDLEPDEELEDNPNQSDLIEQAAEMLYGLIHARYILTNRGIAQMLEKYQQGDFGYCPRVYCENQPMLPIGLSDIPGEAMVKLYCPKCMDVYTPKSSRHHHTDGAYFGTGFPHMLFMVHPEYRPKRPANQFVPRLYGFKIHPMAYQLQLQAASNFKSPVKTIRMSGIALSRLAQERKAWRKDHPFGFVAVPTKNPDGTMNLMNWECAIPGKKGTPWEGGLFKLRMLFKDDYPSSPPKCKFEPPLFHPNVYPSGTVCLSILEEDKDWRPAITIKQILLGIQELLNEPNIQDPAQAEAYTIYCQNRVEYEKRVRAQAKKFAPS
T6 sequence (P63279+Q8IW41 fused): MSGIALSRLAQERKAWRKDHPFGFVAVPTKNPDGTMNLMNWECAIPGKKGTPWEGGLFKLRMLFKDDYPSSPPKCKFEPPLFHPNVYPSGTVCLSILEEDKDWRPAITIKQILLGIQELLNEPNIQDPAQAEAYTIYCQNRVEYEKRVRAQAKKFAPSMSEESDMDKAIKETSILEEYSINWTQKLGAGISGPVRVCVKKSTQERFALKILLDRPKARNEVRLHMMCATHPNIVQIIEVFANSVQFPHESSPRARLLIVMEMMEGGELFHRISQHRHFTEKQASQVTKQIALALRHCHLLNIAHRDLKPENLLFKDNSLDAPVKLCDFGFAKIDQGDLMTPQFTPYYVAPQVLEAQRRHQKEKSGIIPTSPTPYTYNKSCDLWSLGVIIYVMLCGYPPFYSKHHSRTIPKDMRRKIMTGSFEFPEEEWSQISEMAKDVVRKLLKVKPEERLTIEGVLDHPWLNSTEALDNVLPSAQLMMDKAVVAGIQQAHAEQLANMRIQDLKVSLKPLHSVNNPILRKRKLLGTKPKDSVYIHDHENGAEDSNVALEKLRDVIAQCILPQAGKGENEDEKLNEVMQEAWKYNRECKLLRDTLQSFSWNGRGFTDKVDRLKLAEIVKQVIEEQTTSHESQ
T7 sequence (P63279+P67870 fused): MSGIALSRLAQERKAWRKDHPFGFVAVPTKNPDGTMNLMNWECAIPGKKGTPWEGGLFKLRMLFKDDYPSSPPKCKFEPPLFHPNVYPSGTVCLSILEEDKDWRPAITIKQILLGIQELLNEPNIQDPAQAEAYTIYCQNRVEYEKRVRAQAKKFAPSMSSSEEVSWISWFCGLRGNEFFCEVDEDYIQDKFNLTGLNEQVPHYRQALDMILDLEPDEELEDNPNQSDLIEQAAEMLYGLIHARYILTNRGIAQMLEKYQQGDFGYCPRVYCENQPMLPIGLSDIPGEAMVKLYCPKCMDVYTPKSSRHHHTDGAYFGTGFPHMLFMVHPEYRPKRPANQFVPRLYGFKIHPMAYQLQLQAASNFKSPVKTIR
T8 sequence (P42224+P63279 fused): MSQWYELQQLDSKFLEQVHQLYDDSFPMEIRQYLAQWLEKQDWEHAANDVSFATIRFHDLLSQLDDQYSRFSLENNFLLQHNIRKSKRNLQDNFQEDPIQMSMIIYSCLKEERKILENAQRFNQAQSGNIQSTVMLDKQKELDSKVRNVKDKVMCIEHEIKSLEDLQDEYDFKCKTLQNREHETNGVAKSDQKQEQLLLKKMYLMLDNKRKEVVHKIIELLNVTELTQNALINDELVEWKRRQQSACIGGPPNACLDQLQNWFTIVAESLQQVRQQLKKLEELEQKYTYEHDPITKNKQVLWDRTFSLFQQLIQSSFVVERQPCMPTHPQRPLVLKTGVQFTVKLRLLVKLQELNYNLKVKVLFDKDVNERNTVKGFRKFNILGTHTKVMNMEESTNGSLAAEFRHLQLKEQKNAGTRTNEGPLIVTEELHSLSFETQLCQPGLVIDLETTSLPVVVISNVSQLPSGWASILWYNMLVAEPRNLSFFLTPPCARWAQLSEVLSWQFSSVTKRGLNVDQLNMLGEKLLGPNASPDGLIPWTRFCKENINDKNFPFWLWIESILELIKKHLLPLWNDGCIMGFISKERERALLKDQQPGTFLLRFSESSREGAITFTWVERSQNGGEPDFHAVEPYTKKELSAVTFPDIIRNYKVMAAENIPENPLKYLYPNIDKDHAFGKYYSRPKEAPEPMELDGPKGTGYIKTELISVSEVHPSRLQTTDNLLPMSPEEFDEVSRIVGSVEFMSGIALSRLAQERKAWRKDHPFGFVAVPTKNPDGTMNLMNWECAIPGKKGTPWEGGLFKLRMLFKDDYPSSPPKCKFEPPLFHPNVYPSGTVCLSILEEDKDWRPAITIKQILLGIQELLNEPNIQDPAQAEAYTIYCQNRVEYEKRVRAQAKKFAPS

Substance: HA-HSP27: HSP27 fused to HA tag
Trans-SUMOylation (U-MK2; western blot, Table 1): −
Trans-SUMOylation (MK2-U; western blot, Table 1): −

Substance: HA-JUN: JUN fused to HA tag
Trans-SUMOylation (JUN-U; Table 1): +
Trans-SUMOylation (MK2-U; western blot, Table 2): (+/−)

Substance: Myc-MK2: MK2 fused to Myc tag
Trans-SUMOylation (JUN-U; Table 2): −
Trans-SUMOylation (U-MK2; MEKK1 coexpressed, Table 2): + (MEKK1)
Trans-SUMOylation (U-MK2; western blot, Table 2): −
Trans-SUMOylation (MK2-U; MEKK1 coexpressed, Table 2): + (MEKK1)
Trans-SUMOylation (MK2-U; western blot, Table 2): +
Trans-SUMOylation (U-p38α; MEKK1ca (Table 1B: MEKK1) coexpressed, Table 1): ++ (MEKK1ca)
Trans-SUMOylation (U-p38α; western blot, Table 1): +
Trans-SUMOylation (U-MK5): +
Trans-SUMOylation (p53-U; protein 2 construct coexpressed with p53-U and EGFP-SUMO1 in HEK293, Table 2): −
Trans-SUMOylation (U-CSNK2B): (+/−)

Substance: p53K386R-ST(377-389): p53K386R fused to SUMOylation site tag 377-389
Trans-SUMOylation (CSNK2B-U): +
Trans-SUMOylation (U-MK2; western blot, Table 2): −

Substance: p53K386R-ST(377-391): p53K386R fused to SUMOylation site tag 377-391
Trans-SUMOylation (CSNK2B-U): +
Trans-SUMOylation (U-MK2; western blot, Table 2): −

Continued, in another order:

Trans-SUMOylation (JUN-U; Table 2): −
Trans-SUMOylation (U-MK2; western blot, Table 1): +
Trans-SUMOylation (U-p38α; western blot, Table 1): +
Trans-SUMOylation (p53-U; [1]): +
Substance: HA-ERK2: ERK2 fused to HA tag

Trans-SUMOylation (JUN-U; Table 1): −
Trans-SUMOylation (U-MK2; western blot, Table 2): −
Trans-SUMOylation (U-p38α; western blot, Table 2): −
Trans-SUMOylation (U-MK5): −
Trans-SUMOylation (p53-U; [1]): −
Substance: HA-JNK2: JNK2 fused to HA tag

Trans-SUMOylation (MK2-U; western blot, Table 2): −
Trans-SUMOylation (STAT1-U): −
Substance: STAT1-FKBP: human STAT1a fused to FKBP heterodimerisation domain
double modification of STAT1 by SUMOylation and Y701 phosphorylation (STAT1): no double modification
